This note sets out measurements from patent US20160303183A1 (WUHAN YICHENG BIOTECH, published 2016).

The target of the experiment is T1, proliferating cell nuclear antigen (PCNA) (human, UniProt P12004 1-261).
T1 construct: Endogenous intracellular protein, immunoprecipitated from HT29 cell lysate
Nature of the experiment: not described.

T1 sequence (P12004 whole entry): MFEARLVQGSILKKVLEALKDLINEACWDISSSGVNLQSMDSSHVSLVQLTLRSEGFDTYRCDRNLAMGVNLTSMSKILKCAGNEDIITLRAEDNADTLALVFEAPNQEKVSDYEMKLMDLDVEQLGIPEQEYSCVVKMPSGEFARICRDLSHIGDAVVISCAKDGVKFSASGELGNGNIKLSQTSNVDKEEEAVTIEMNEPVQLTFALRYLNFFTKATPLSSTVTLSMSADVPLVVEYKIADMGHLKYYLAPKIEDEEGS

B1: polypeptide P15 (peptide)
peptide: MPYSTELIFYIEMDP
notes: 15-residue polypeptide fragment
Consider B1, for which the binding result was “binds”.
